Source: PMC12669651

Tests used:
[1] = O-GlcNAc at S296
ROS detection in BMSCs = conditions: glycan lost; control: wild-type Foxo3
[2] = cycloheximide chase, Western blot, Foxo3-KO BMSCs; conditions: glycan lost; control: wild-type Foxo3

B1: FOXO3: S296V (protein)
parent chain: MAEAPASPVPLSPLEVELDPEFEPQSRPRSCTWPLQRPELQASPAKPSGETAADSMIPEEDDDEDDEDGGGRASSAMVIGGGVSSTLGSGLLLEDSAMLLAPGGQDLGSGPASAAGALSGGTPTQLQPQQPLPQPQPGAAGGSGQPRKCSSRRNAWGNLSYADLITRAIESSPDKRLTLSQIYEWMVRCVPYFKDKGDSNSSAGWKNSIRHNLSLHSRFMRVQNEGTGKSSWWIINPDGGKSGKAPRRRAVSMDNSNKYTKSRGRAAKKKAALQAAPESADDSPSQLSKWPGSPTSRSSDELDAWTDFRSRTNSNASTVSGRLSPILASTELDDVQDDDGPLSPMLYSSSASLSPSVSKPCTVELPRLTDMAGTMNLNDGLAENLMDDLLDNIALPPSQPSPPGGLMQRGSSFPYTAKSSGLGSPTGSFNSTVFGPSSLNSLRQSPMQTIQENRPATFSSVSHYGNQTLQDLLASDSLSHSDVMMTQSDPLMSQASTAVSAQNARRNVMLRNDPMMSFAAQPTQGSLVNQNLLHHQHQTQGALGGSRALSNSVSNMGLSDSSSLGSAKHQQQSPASQSMQTLSDSLSGSSLYSASANLPVMGHDKFPSDLDLDMFNGSLECDMESIIRSELMDADGLDFNFDSLISTQNVVGLNVGNFTGAKQASSQSWVPG
degradation_or_half_life [1]: decreases, half-life from 24 hours to 12 hours | other: cellular ROS level (ROS detection in BMSCs): increases | degradation_or_half_life, half_life [2]: decreases, 12 vs 24
